# Test results: publication PMC3603003 (Molecular Plant, 2012)
# Columns and labels:
# SEC = molecular target: the molecule itself; experiment: SEC
# [1] = molecular target: rabbit muscle actin, polymerized (F-actin) (rabbit, UniProt P68135 1-377); experiment: co-sedimentation
binder,measurement,setting,value
"NtWLIM2–His (recombinant tobacco LIM protein WLIM2, 6xHis-tagged) (natural protein, Nicotiana tabacum (tobacco), UniProt P93356 1-189, looked up) MSFIGTQQKCKACEKTVYPVELLSADGVNYHKSCFKCSHCKGTLKLSNFSSMEGVLYCKPHFEQLFKESGNFNKNFQSPAKSAEKLTPELTRSPSKAAGMFSGTQEKCATCGKTAYPLEKVTVENQSYHKTCFKCSHGGCSLSPSNYAALNGILYCKPHFSQLFKEKGSYNHLIKSASMKRPAATVPDS",stoichiometry N,SEC,2
same,Kd,[1],1830 nM
